Ends that are not written are not given here.

For data set [1], the system named is TCR^FLT3D/Y cells. Particulars: 28 candidate 9mers from the human proteome pulsed on K562 cells. As to the method:
TCR-transduced T cells were co-cultured with cell lines or primary patient tumor cells at an effector:target cell ratio of 1:2 (100,000:200,000 cells/well) and reactivity was investigated by measuring CD137 upregulation or release of IFN-γ. […] Cells were placed in round or flat bottom 96-well plates and after 18-20 h of co-incubation centrifuged at 700 g for 2 min. Supernatants were harvested for measurement of IFN-γ by ELISA, while cells were washed and stained with anti-CD137. In some experiments, transduced T cells were labeled with 0.75 µM CTV to distinguish them from target cells. Reagents for IFN-γ ELISA were acquired from BD Pharmingen or R&D Systems: mouse anti-human IFN-γ capture antibody (NIB42), Biotin Mouse Anti-Human IFN-γ detection antibody (4S.B3), streptavidin-HRP, stabilized tetramethylbenzidine and hydrogen peroxide as substrate solutions, sulfuric acid as stop solution, and recombinant human IFN-γ protein as standard. The assay was performed according to manufacturer's instructions.

Data set [2] deals with HLA-A2 presenting the cognate NY-ESO1 peptide (human) (UniProt P78358). As to the kind of experiment: cell-based or functional assay.
Data set [3] addresses T1, MED1 peptide on HLA-A*02:01 (human).
T1 peptide: YITSDMFYV
As to the kind of experiment: cytokine release.

Data set [4] addresses T2, LZTR1 peptide on HLA-A*02:01 (human).
T2 peptide: AVISDAMYI
As to the kind of experiment: cytokine release.

Data set [5] addresses T3, PRADC1 peptide on HLA-A*02:01 (human).
T3 peptide: AVDNDSFYV
As to the kind of experiment: cytokine release.

Data set [6] deals with T4, FLT3 wild type peptide on HLA-A*02:01 (human).
T4 peptide: DIMSDSNYV
The data set can be described thus: multimer staining.

Data set [7] deals with T5, FLT3 D835Y peptide on HLA-A*02:01 (human).
T5 peptide: YIMSDSNYV
As to the kind of experiment: CD137 upregulation; transduced T cells of 4 donors against HLA-A2-transduced K562 pulsed with titrated peptide; full-length, on cells.

Take YITSDMFYV [peptide 12]: the “activation of TCR^FLT3D/Y cells (IFN-γ production)” value in data set [1] is recorded as “activated”. As for AVISDAMYI [peptide 11], the “activation of TCR^FLT3D/Y cells (IFN-γ production)” value in data set [1] is on record as “activated”. On the same count and under the same terms, next, AVDNDSFYV [peptide 15]: “activated”.

With NY-ESO1-specific TCR 1G4, the T cell activation by peptide-pulsed target cells, EC50 in data set [2] worked out at 5.5 nM.

B1: TCR^FLT3D/Y (TCR, V domains shown)
Valpha: ELKVEQNPLFLSMQEGKNYTIYCNYSTTSDRLYWYRQDPGKSLESLFVLLSNGAVKQEGRLMASLDTKARLSTLHITAAVHDLSATYFCAVVGGSQGNLIFGKGTKLSVKP
Vbeta: DVKVTQSSRYLVKRTGEKVFLECVQDMDHENMFWYRQDPGLGLRLIYFSYDVKMKEKGDIPEGYSVSREKKERFSLILESASTNQTSMYLCASSLSPGGGYGYTFGSGTRLTVV
Take B1: the binding result in data set [3] is “recognises”; in data set [4] it was “recognises”; in data set [5], “recognises”; in data set [6] it was “no recognition”. For the same molecule, in data set [7], the EC50 of peptide stood at 0.081 nM.

The values are drawn from EP4491630A1, “T-CELL RECEPTOR FOR ACUTE MYELOID LEUKEMIA (AML)” (Universitetet I Oslo, priority 2023, dated 2025).
